B1: contactin 1^Ig1–6 (residues 21–604), high mannose glycans (domain or fragment, mouse, UniProt P12960 21-604, looked up)
chain: DFTWHRRYGHGVSEEDKGFGPIFEEQPINTIYPEESLEGKVSLNCRARASPFPVYKWRMNNGDVDLTNDRYSMVGGNLVINNPDKQKDAGVYYCLASNNYGMVRSTEATLSFGYLDPFPPEERPEVKVKEGKGMVLLCDPPYHFPDDLSYRWLLNEFPVFITMDKRRFVSQTNGNLYIANVESSDRGNYSCFVSSPSITKSVFSKFIPLIPIPERTTKPYPADIVVQFKDIYTMMGQNVTLECFALGNPVPDIRWRKVLEPMPSTAEISTSGAVLKIFNIQLEDEGLYECEAENIRGKDKHQARIYVQAFPEWVEHINDTEVDIGSDLYWPCIATGKPIPTIRWLKNGYSYHKGELRLYDVTFENAGMYQCIAENAYGSIYANAELKILALAPTFEMNPMKKKILAAKGGRVIIECKPKAAPKPKFSWSKGTEWLVNSSRILIWEDGSLEINNITRNDGGIYTCFAENNRGKANSTGTLVITNPTRIILAPINADITVGENATMQCAASFDPALDLTFVWSFNGYVIDFNKEITHIHYQRNFMLDANGELLIRNAQLKHAGRYTCTAQTIVDNSSASADLVVRG
modifications: N-linked high mannose glycans (glycans at Asn208, Asn258 and Asn521 are named)
notes: contactin 1, mouse, domains Ig1 to Ig6, residues 21–604; template Image Clone 30099512; Vector pUPE107.03 supplies a cystatin secretion signal peptide; also called CNTN1^Ig1–6; contactin 1^Ig1–6 HM; source: HEK293-ES (GnTI−, EBNA1-expressing HEK293), secreted, purified (Ni Sepharose excel, SEC)
B2: contactin 1: kifunensine on contactin 1 cells (protein)
parent chain: MKMPLLVSHLLLISLTSCLGDFTWHRRYGHGVSEEDKGFGPIFEEQPINTIYPEESLEGKVSLNCRARASPFPVYKWRMNNGDVDLTNDRYSMVGGNLVINNPDKQKDAGVYYCLASNNYGMVRSTEATLSFGYLDPFPPEERPEVKVKEGKGMVLLCDPPYHFPDDLSYRWLLNEFPVFITMDKRRFVSQTNGNLYIANVESSDRGNYSCFVSSPSITKSVFSKFIPLIPIPERTTKPYPADIVVQFKDIYTMMGQNVTLECFALGNPVPDIRWRKVLEPMPSTAEISTSGAVLKIFNIQLEDEGLYECEAENIRGKDKHQARIYVQAFPEWVEHINDTEVDIGSDLYWPCIATGKPIPTIRWLKNGYSYHKGELRLYDVTFENAGMYQCIAENAYGSIYANAELKILALAPTFEMNPMKKKILAAKGGRVIIECKPKAAPKPKFSWSKGTEWLVNSSRILIWEDGSLEINNITRNDGGIYTCFAENNRGKANSTGTLVITNPTRIILAPINADITVGENATMQCAASFDPALDLTFVWSFNGYVIDFNKEITHIHYQRNFMLDANGELLIRNAQLKHAGRYTCTAQTIVDNSSASADLVVRGPPGPPGGLRIEDIRATSVALTWSRGSDNHSPISKYTIQTKTILSDDWKDAKTDPPIIEGNMESAKAVDLIPWMEYEFRVVATNTLGTGEPSIPSNRIKTDGAAPNVAPSDVGGGGGTNRELTITWAPLSREYHYGNNFGYIVAFKPFDGEEWKKVTVTNPDTGRYVHKDETMTPSTAFQVKVKAFNNKGDGPYSLVAVINSAQDAPSEAPTEVGVKVLSSSEISVHWKHVLEKIVESYQIRYWAGHDKEAAAHRVQVTSQEYSARLENLLPDTQYFIEVGACNSAGCGPSSDVIETFTRKAPPSQPPRIISSVRSGSRYIITWDHVVALSNESTVTGYKILYRPDGQHDGKLFSTHKHSIEVPIPRDGEYVVEVRAHSDGGDGVVSQVKISGVSTLSSSLLSLLLPSLGFLVYSEF
B3: contactin 1: kifunensine on both cell types (protein)
parent chain: MKMPLLVSHLLLISLTSCLGDFTWHRRYGHGVSEEDKGFGPIFEEQPINTIYPEESLEGKVSLNCRARASPFPVYKWRMNNGDVDLTNDRYSMVGGNLVINNPDKQKDAGVYYCLASNNYGMVRSTEATLSFGYLDPFPPEERPEVKVKEGKGMVLLCDPPYHFPDDLSYRWLLNEFPVFITMDKRRFVSQTNGNLYIANVESSDRGNYSCFVSSPSITKSVFSKFIPLIPIPERTTKPYPADIVVQFKDIYTMMGQNVTLECFALGNPVPDIRWRKVLEPMPSTAEISTSGAVLKIFNIQLEDEGLYECEAENIRGKDKHQARIYVQAFPEWVEHINDTEVDIGSDLYWPCIATGKPIPTIRWLKNGYSYHKGELRLYDVTFENAGMYQCIAENAYGSIYANAELKILALAPTFEMNPMKKKILAAKGGRVIIECKPKAAPKPKFSWSKGTEWLVNSSRILIWEDGSLEINNITRNDGGIYTCFAENNRGKANSTGTLVITNPTRIILAPINADITVGENATMQCAASFDPALDLTFVWSFNGYVIDFNKEITHIHYQRNFMLDANGELLIRNAQLKHAGRYTCTAQTIVDNSSASADLVVRGPPGPPGGLRIEDIRATSVALTWSRGSDNHSPISKYTIQTKTILSDDWKDAKTDPPIIEGNMESAKAVDLIPWMEYEFRVVATNTLGTGEPSIPSNRIKTDGAAPNVAPSDVGGGGGTNRELTITWAPLSREYHYGNNFGYIVAFKPFDGEEWKKVTVTNPDTGRYVHKDETMTPSTAFQVKVKAFNNKGDGPYSLVAVINSAQDAPSEAPTEVGVKVLSSSEISVHWKHVLEKIVESYQIRYWAGHDKEAAAHRVQVTSQEYSARLENLLPDTQYFIEVGACNSAGCGPSSDVIETFTRKAPPSQPPRIISSVRSGSRYIITWDHVVALSNESTVTGYKILYRPDGQHDGKLFSTHKHSIEVPIPRDGEYVVEVRAHSDGGDGVVSQVKISGVSTLSSSLLSLLLPSLGFLVYSEF
B4: contactin 1^fe (full ectodomain, residues 21–996), complex glycans (domain or fragment, mouse, UniProt P12960 21-996, looked up)
chain: DFTWHRRYGHGVSEEDKGFGPIFEEQPINTIYPEESLEGKVSLNCRARASPFPVYKWRMNNGDVDLTNDRYSMVGGNLVINNPDKQKDAGVYYCLASNNYGMVRSTEATLSFGYLDPFPPEERPEVKVKEGKGMVLLCDPPYHFPDDLSYRWLLNEFPVFITMDKRRFVSQTNGNLYIANVESSDRGNYSCFVSSPSITKSVFSKFIPLIPIPERTTKPYPADIVVQFKDIYTMMGQNVTLECFALGNPVPDIRWRKVLEPMPSTAEISTSGAVLKIFNIQLEDEGLYECEAENIRGKDKHQARIYVQAFPEWVEHINDTEVDIGSDLYWPCIATGKPIPTIRWLKNGYSYHKGELRLYDVTFENAGMYQCIAENAYGSIYANAELKILALAPTFEMNPMKKKILAAKGGRVIIECKPKAAPKPKFSWSKGTEWLVNSSRILIWEDGSLEINNITRNDGGIYTCFAENNRGKANSTGTLVITNPTRIILAPINADITVGENATMQCAASFDPALDLTFVWSFNGYVIDFNKEITHIHYQRNFMLDANGELLIRNAQLKHAGRYTCTAQTIVDNSSASADLVVRGPPGPPGGLRIEDIRATSVALTWSRGSDNHSPISKYTIQTKTILSDDWKDAKTDPPIIEGNMESAKAVDLIPWMEYEFRVVATNTLGTGEPSIPSNRIKTDGAAPNVAPSDVGGGGGTNRELTITWAPLSREYHYGNNFGYIVAFKPFDGEEWKKVTVTNPDTGRYVHKDETMTPSTAFQVKVKAFNNKGDGPYSLVAVINSAQDAPSEAPTEVGVKVLSSSEISVHWKHVLEKIVESYQIRYWAGHDKEAAAHRVQVTSQEYSARLENLLPDTQYFIEVGACNSAGCGPSSDVIETFTRKAPPSQPPRIISSVRSGSRYIITWDHVVALSNESTVTGYKILYRPDGQHDGKLFSTHKHSIEVPIPRDGEYVVEVRAHSDGGDGVVSQVKISG
modifications: N-linked complex glycans
notes: contactin 1, mouse, full ectodomain, residues 21–996; template Image Clone 30099512; Same chain as m7, other host and glycan type; also called contactin 1^fe CG; source: HEK293-E (EBNA1-expressing HEK293), secreted, purified (Ni Sepharose excel, SEC)
B5: contactin 1^fe (full ectodomain, residues 21–996), high mannose glycans (domain or fragment, mouse, UniProt P12960 21-996, looked up)
chain: DFTWHRRYGHGVSEEDKGFGPIFEEQPINTIYPEESLEGKVSLNCRARASPFPVYKWRMNNGDVDLTNDRYSMVGGNLVINNPDKQKDAGVYYCLASNNYGMVRSTEATLSFGYLDPFPPEERPEVKVKEGKGMVLLCDPPYHFPDDLSYRWLLNEFPVFITMDKRRFVSQTNGNLYIANVESSDRGNYSCFVSSPSITKSVFSKFIPLIPIPERTTKPYPADIVVQFKDIYTMMGQNVTLECFALGNPVPDIRWRKVLEPMPSTAEISTSGAVLKIFNIQLEDEGLYECEAENIRGKDKHQARIYVQAFPEWVEHINDTEVDIGSDLYWPCIATGKPIPTIRWLKNGYSYHKGELRLYDVTFENAGMYQCIAENAYGSIYANAELKILALAPTFEMNPMKKKILAAKGGRVIIECKPKAAPKPKFSWSKGTEWLVNSSRILIWEDGSLEINNITRNDGGIYTCFAENNRGKANSTGTLVITNPTRIILAPINADITVGENATMQCAASFDPALDLTFVWSFNGYVIDFNKEITHIHYQRNFMLDANGELLIRNAQLKHAGRYTCTAQTIVDNSSASADLVVRGPPGPPGGLRIEDIRATSVALTWSRGSDNHSPISKYTIQTKTILSDDWKDAKTDPPIIEGNMESAKAVDLIPWMEYEFRVVATNTLGTGEPSIPSNRIKTDGAAPNVAPSDVGGGGGTNRELTITWAPLSREYHYGNNFGYIVAFKPFDGEEWKKVTVTNPDTGRYVHKDETMTPSTAFQVKVKAFNNKGDGPYSLVAVINSAQDAPSEAPTEVGVKVLSSSEISVHWKHVLEKIVESYQIRYWAGHDKEAAAHRVQVTSQEYSARLENLLPDTQYFIEVGACNSAGCGPSSDVIETFTRKAPPSQPPRIISSVRSGSRYIITWDHVVALSNESTVTGYKILYRPDGQHDGKLFSTHKHSIEVPIPRDGEYVVEVRAHSDGGDGVVSQVKISG
modifications: N-linked high mannose glycans
notes: contactin 1, mouse, full ectodomain, residues 21–996; template Image Clone 30099512; Vector pUPE107.03 supplies a cystatin secretion signal peptide; also called contactin 1^fe HM; source: HEK293-ES (GnTI−, EBNA1-expressing HEK293), secreted, purified (Ni Sepharose excel, SEC)
B6: contactin 1^fe Leu279Arg, high mannose glycans (domain or fragment, mouse, UniProt P12960 21-996, looked up)
chain: DFTWHRRYGHGVSEEDKGFGPIFEEQPINTIYPEESLEGKVSLNCRARASPFPVYKWRMNNGDVDLTNDRYSMVGGNLVINNPDKQKDAGVYYCLASNNYGMVRSTEATLSFGYLDPFPPEERPEVKVKEGKGMVLLCDPPYHFPDDLSYRWLLNEFPVFITMDKRRFVSQTNGNLYIANVESSDRGNYSCFVSSPSITKSVFSKFIPLIPIPERTTKPYPADIVVQFKDIYTMMGQNVTLECFALGNPVPDIRWRKVREPMPSTAEISTSGAVLKIFNIQLEDEGLYECEAENIRGKDKHQARIYVQAFPEWVEHINDTEVDIGSDLYWPCIATGKPIPTIRWLKNGYSYHKGELRLYDVTFENAGMYQCIAENAYGSIYANAELKILALAPTFEMNPMKKKILAAKGGRVIIECKPKAAPKPKFSWSKGTEWLVNSSRILIWEDGSLEINNITRNDGGIYTCFAENNRGKANSTGTLVITNPTRIILAPINADITVGENATMQCAASFDPALDLTFVWSFNGYVIDFNKEITHIHYQRNFMLDANGELLIRNAQLKHAGRYTCTAQTIVDNSSASADLVVRGPPGPPGGLRIEDIRATSVALTWSRGSDNHSPISKYTIQTKTILSDDWKDAKTDPPIIEGNMESAKAVDLIPWMEYEFRVVATNTLGTGEPSIPSNRIKTDGAAPNVAPSDVGGGGGTNRELTITWAPLSREYHYGNNFGYIVAFKPFDGEEWKKVTVTNPDTGRYVHKDETMTPSTAFQVKVKAFNNKGDGPYSLVAVINSAQDAPSEAPTEVGVKVLSSSEISVHWKHVLEKIVESYQIRYWAGHDKEAAAHRVQVTSQEYSARLENLLPDTQYFIEVGACNSAGCGPSSDVIETFTRKAPPSQPPRIISSVRSGSRYIITWDHVVALSNESTVTGYKILYRPDGQHDGKLFSTHKHSIEVPIPRDGEYVVEVRAHSDGGDGVVSQVKISG
modifications: N-linked high mannose glycans
notes: contactin 1, mouse, full ectodomain, residues 21–996, Leu279Arg; template Image Clone 30099512; also called Leu279Arg contactin 1^fe; Contactin 1^fe Leu279Arg HM

Experiments:
[1] = target: the molecule itself; assay: AUC; sedimentation velocity, c(s) distribution; low concentration (9 µM contactin 1^Ig1–6, 5 µM contactin 1^fe), 12 mm centerpieces; 25 mM HEPES pH 7.5, 150 mM NaCl, 20 °C; abundances relative to normalized monomer abundance
[2] = target: the molecule itself; assay: AUC; sedimentation velocity, c(s) distribution; higher concentration (36 µM contactin 1^Ig1–6, 22 µM contactin 1^fe), 3 mm centerpieces; 25 mM HEPES pH 7.5, 150 mM NaCl, 20 °C; abundances relative to normalized monomer abundance
[3] = K562 cell clustering, co-clustering ratio; conditions: glycan changed form; control: untreated contactin 1 and neurofascin 155 K562 cells
[4] = target: the molecule itself; assay: native MS; 2.5 µM protein in 150 mM ammonium acetate pH 7.5; static nano-electrospray, LCT time-of-flight

| Protein | Dimer abundance (%) [1] [%] | Trace amounts higher order species [1] [%] | Trimer abundance (%) [1] [%] | Dimer abundance (%) [2] [%] | other: heterophilic cell co-clustering [3] | stoichiometry N [4] | Trimer abundance (%) [2] [%] |
| --- | --- | --- | --- | --- | --- | --- | --- |
| B1 | 2.4 | 0.6 | 0.8 | 0.1 |  |  |  |
| B2 |  |  |  |  | increases |  |  |
| B3 |  |  |  |  | no change |  |  |
| B4 | 9.9 | 4.6 | 3.4 | 9.8 |  | 2 | 4 |
| B5 | 11.7 |  | 1.8 | 2.9 |  | 2 | 0.3 |
| B6 | 7.3 | 1.4 | 8.7 | 5.7 |  | ≤ 6 | 6.7 |

Reference: publication PMC9633819 (Nature Communications, 2022)
